The target of assay [1] is T1, recombinant tau monomer seed (human, UniProt P10636-8 1-441, Cy5 (Cyanine5 NHS ester) label in MST).
T1 construct: Probably made from the full-length 2N4R tau of m5; the methods say only 'wild-type tau'; also called tau monomer seeds; tau seeds; source: wild-type tau from E. coli BL21 (DE3) incubated 1:1 with heparin for 1 h at 37 °C, isolated on Superdex 200
As to the kind of experiment: MST; Cy5-labelled wild-type or mutant tau/tauRD titrated with a serial two-fold dilution of DnaJC7 or single DnaJC7 domains; Monolith NT.115; technical triplicates; fit in PALMIST with a 1:1 binding model. Conditions: both partners purified.

Assay [2] has as its target T2, full-length 2N4R wild-type tau (human, UniProt P10636-8 1-441, Cy5 (Cyanine5 NHS ester) label in MST).
T2 construct: microtubule-associated protein tau, 2N4R isoform, full length; also called WT tau; full-length tau; source: E. coli BL21 (DE3), pET28b, purified
The description is as above. Conditions: both partners purified.

The target in assay [3] is T2, full-length 2N4R wild-type tau. As to the kind of experiment: cell-based or functional assay.
Assay [4] concerns the target T3, full-length 2N4R P301L tau (human, UniProt P10636-8 1-441, P301L, Cy5 (Cyanine5 NHS ester) label in MST).
T3 construct: microtubule-associated protein tau, 2N4R isoform, full length, with the disease-associated P301L mutation; also called full-length P301L tau mutant; source: E. coli BL21 (DE3), pET28b, purified
As to the kind of experiment: MST; Cy5-labelled wild-type or mutant tau/tauRD titrated with a serial two-fold dilution of DnaJC7 or single DnaJC7 domains; Monolith NT.115; technical triplicates; fit in PALMIST with a 1:1 binding model. Conditions: both partners purified.

In assay [5] the target is T4, full-length 2N4R P301L tau (human, UniProt P10636-8 1-441, P301L, Cy5 (Cyanine5 NHS ester) label in the MST assays; unlabelled in cross-linking and aggregation assays).
T4 construct: microtubule-associated protein tau, 2N4R isoform, with the frontotemporal dementia disease-associated P301L mutation; source: E. coli BL21 (DE3), pET28b, purified
Nature of the assay: MST; WT tau or P301L tau labelled with Cyanine5 NHS ester dye (Cy5) and titrated by a serial two-fold dilution of DnaJC7 domains; n=3; Nanotemper Monolith NT.115; 1:1 binding model. The following applies: both partners purified.

The target of assay [6] is T5, full-length 2N4R wild-type tau (human, UniProt P10636-8 1-441, Cy5 (Cyanine5 NHS ester) label in the MST assays; unlabelled in cross-linking and aggregation assays).
T5 construct: microtubule-associated protein tau, 2N4R isoform; also called WT tau; WT TAU; source: E. coli BL21 (DE3), pET28b, purified
The description is as above. Conditions: both partners purified.

The results in this text go back to article PMC8429438, “DnaJC7 binds natively folded structural elements in tau to inhibit amyloid formation” (Nature Communications, 2021).

In general, Kd refers to the free concentration of one partner at which half of the binding sites on the other are occupied at equilibrium, for simple one-to-one binding.

Where “and” joins values, the source holds several entries; their conditions need not be identical. Equal values may be shown once.

T3 sequence (P10636 other isoform, or with tags, fused parts or gaps P301L | P301L | P301L P301L): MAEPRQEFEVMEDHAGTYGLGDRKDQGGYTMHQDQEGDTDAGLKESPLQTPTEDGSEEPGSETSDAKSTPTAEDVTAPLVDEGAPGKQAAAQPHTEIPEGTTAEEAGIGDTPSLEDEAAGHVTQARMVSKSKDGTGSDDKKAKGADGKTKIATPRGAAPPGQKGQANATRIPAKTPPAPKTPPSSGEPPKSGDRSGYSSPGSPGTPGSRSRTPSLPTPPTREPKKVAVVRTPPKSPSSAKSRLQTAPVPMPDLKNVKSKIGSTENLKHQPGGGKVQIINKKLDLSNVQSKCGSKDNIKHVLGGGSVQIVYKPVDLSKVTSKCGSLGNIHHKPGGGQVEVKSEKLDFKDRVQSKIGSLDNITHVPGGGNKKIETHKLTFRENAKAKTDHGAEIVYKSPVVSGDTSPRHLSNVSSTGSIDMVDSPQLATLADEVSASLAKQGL
T4 sequence (P10636 other isoform, or with tags, fused parts or gaps P301L | P301L | P301L P301L): as above
T2 sequence (P10636 other isoform, or with tags, fused parts or gaps): as the sequence (P10636 other isoform, or with tags, fused parts or gaps P301L | P301L | P301L P301L) above, with L301P counted along it
T5 sequence (P10636 other isoform, or with tags, fused parts or gaps): as the sequence (P10636 other isoform, or with tags, fused parts or gaps P301L | P301L | P301L P301L) above, with L301P counted along it
T1 sequence (P10636 other isoform, or with tags, fused parts or gaps): as the sequence (P10636 other isoform, or with tags, fused parts or gaps P301L | P301L | P301L P301L) above, with L301P counted along it

B1: DnaJC7 (full-length, wild type, recombinant) (natural protein, UniProt Q99615 1-494, looked up)
chain: MAAAAECDVVMAATEPELLDDQEAKREAETFKEQGNAYYAKKDYNEAYNYYTKAIDMCPKNASYYGNRAATLMMLGRFREALGDAQQSVRLDDSFVRGHLREGKCHLSLGNAMAACRSFQRALELDHKNAQAQQEFKNANAVMEYEKIAETDFEKRDFRKVVFCMDRALEFAPACHRFKILKAECLAMLGRYPEAQSVASDILRMDSTNADALYVRGLCLYYEDCIEKAVQFFVQALRMAPDHEKACIACRNAKALKAKKEDGNKAFKEGNYKLAYELYTEALGIDPNNIKTNAKLYCNRGTVNSKLRKLDDAIEDCTNAVKLDDTYIKAYLRRAQCYMDTEQYEEAVRDYEKVYQTEKTKEHKQLLKNAQLELKKSKRKDYYKILGVDKNASEDEIKKAYRKRALMHHPDRHSGASAEVQKEEEKKFKEVGEAFTILSDPKKKTRYDSGQDLDEEGMNMGDFDPNNIFKAFFGGPGGFSFEASGPGNFFFQFG
notes: DnaJC7, class-C J-domain protein with TPR1, TPR2a, TPR2b and a C-terminal J domain; called full-length DnaJC7; Plasmid was a gift (A. Joachimiak); also called DnaJC7WT; WT DnaJC7
Consider B1, for which the dissociation constant Kd in assay [1] is 15500 ± 2200 nM; in assay [2] it was 471 nM and 343 nM. The “ThT fluorescence of 4.4 µM WT tau seeded with 50 nM tau monomer seeds with equimolar DnaJC7WT over 100 h, relative to the seeded tau control” value in assay [3] turned out to be 20%.

B2: DnaJC7_(TPR2b_mut) (full-length DnaJC7 with six alanine mutations in the TPR2b binding groove) (natural protein, UniProt Q99615 1-494, looked up)
chain: MAAAAECDVVMAATEPELLDDQEAKREAETFKEQGNAYYAKKDYNEAYNYYTKAIDMCPKNASYYGNRAATLMMLGRFREALGDAQQSVRLDDSFVRGHLREGKCHLSLGNAMAACRSFQRALELDHKNAQAQQEFKNANAVMEYEKIAETDFEKRDFRKVVFCMDRALEFAPACHRFKILKAECLAMLGRYPEAQSVASDILRMDSTNADALYVRGLCLYYEDCIEKAVQFFVQALRMAPDHEKACIACRNAKALKAKAEDGAKAAAAGNAKLAYELYTEALGIDPNNIKTNAKLYCNRGTVNSKLRKLDDAIEDCTNAVKLDDTYIKAYLRRAQCYMDTEQYEEAVRDYEKVYQTEKTKEHKQLLKNAQLELKKSKRKDYYKILGVDKNASEDEIKKAYRKRALMHHPDRHSGASAEVQKEEEKKFKEVGEAFTILSDPKKKTRYDSGQDLDEEGMNMGDFDPNNIFKAFFGGPGGFSFEASGPGNFFFQFG
notes: also called DnaJC7_(TPR2_mut); source: recombinant from pET29b (NdeI/XhoI)
The molecule B2 displayed a Kd in assay [2] of 6000 ± 1200 nM.

B3: DnaJC7 J domain (JD 380-494) (domain or fragment, UniProt Q99615 380-494, looked up)
chain: KDYYKILGVDKNASEDEIKKAYRKRALMHHPDRHSGASAEVQKEEEKKFKEVGEAFTILSDPKKKTRYDSGQDLDEEGMNMGDFDPNNIFKAFFGGPGGFSFEASGPGNFFFQFG
notes: DnaJC7 residues 380-494, C-terminal J domain; also called J domain_(380-494)
As to B3, the Kd was 8200 nM in assay [2] and 28200 nM in assay [4].

B4: DnaJC7 TPR2a domain (141-270) (domain or fragment, UniProt Q99615 141-270, looked up)
chain: AVMEYEKIAETDFEKRDFRKVVFCMDRALEFAPACHRFKILKAECLAMLGRYPEAQSVASDILRMDSTNADALYVRGLCLYYEDCIEKAVQFFVQALRMAPDHEKACIACRNAKALKAKKEDGNKAFKEG
notes: DnaJC7, TPR2a domain, residues 141-270; also called TPR2a_(141-270); not shown: His tag (from the vector pMCSG7)
Regarding B4, the values for the Kd in assay [5] and in assay [6] were 670 nM and 202 nM, respectively.

B5: DnaJC7 TPR2a domain (TPR2a 141-270) (domain or fragment, UniProt Q99615 141-270, looked up)
chain: AVMEYEKIAETDFEKRDFRKVVFCMDRALEFAPACHRFKILKAECLAMLGRYPEAQSVASDILRMDSTNADALYVRGLCLYYEDCIEKAVQFFVQALRMAPDHEKACIACRNAKALKAKKEDGNKAFKEG
notes: DnaJC7 residues 141-270, TPR2a domain
In the case of B5, the “fold tighter binding than full-length DnaJC7” value in assay [2] is more than 2 fold. In addition, the “fold increase in binding affinity relative to full-length DnaJC7” value in assay [4] is more than 12 fold.

B6: DnaJC7 TPR1 domain (20-156) (domain or fragment, UniProt Q99615 20-156, looked up)
chain: DDQEAKREAETFKEQGNAYYAKKDYNEAYNYYTKAIDMCPKNASYYGNRAATLMMLGRFREALGDAQQSVRLDDSFVRGHLREGKCHLSLGNAMAACRSFQRALELDHKNAQAQQEFKNANAVMEYEKIAETDFEKR
notes: DnaJC7, TPR1 domain, residues 20-156; also called TPR1_(20-156); not shown: His tag (from the vector pMCSG7)
In the case of B6, in assay [5], the dissociation constant Kd amounted to 404 nM.

B7: DnaJC7 TPR1 domain (TPR1 20-156) (domain or fragment, UniProt Q99615 20-156, looked up)
chain: DDQEAKREAETFKEQGNAYYAKKDYNEAYNYYTKAIDMCPKNASYYGNRAATLMMLGRFREALGDAQQSVRLDDSFVRGHLREGKCHLSLGNAMAACRSFQRALELDHKNAQAQQEFKNANAVMEYEKIAETDFEKR
notes: DnaJC7 residues 20-156, TPR1 domain
In turn, B7 came in with a dissociation constant Kd in assay [2] of 84 nM. Besides, the “fold increase in binding affinity relative to full-length DnaJC7” value in assay [4] is more than 12 fold.

B8: DnaJC7 TPR2b domain (255-370) (domain or fragment, UniProt Q99615 255-370, looked up)
chain: ALKAKKEDGNKAFKEGNYKLAYELYTEALGIDPNNIKTNAKLYCNRGTVNSKLRKLDDAIEDCTNAVKLDDTYIKAYLRRAQCYMDTEQYEEAVRDYEKVYQTEKTKEHKQLLKNA
notes: also called TPR2b_(255-370); TPR2b_(253-370); not shown: His tag (from the vector pMCSG7)
Regarding B8, in assay [5], binding was characterised by a dissociation constant (Kd) of 507 nM.

B9: DnaJC7 TPR2b domain (TPR2b 255-370) (domain or fragment, UniProt Q99615 255-370, looked up)
chain: ALKAKKEDGNKAFKEGNYKLAYELYTEALGIDPNNIKTNAKLYCNRGTVNSKLRKLDDAIEDCTNAVKLDDTYIKAYLRRAQCYMDTEQYEEAVRDYEKVYQTEKTKEHKQLLKNA
notes: also called TPR2b_(253-370)
For B9, binding in assay [2] was put at a Kd of 75 nM. In addition, the “fold increase in binding affinity relative to full-length DnaJC7” value in assay [4] was more than 12 fold.
